According to patent publication US20210094999A1:

Target: insulin receptor-A on CHO-hIR cells (human) (UniProt P06213)
Assay: cell-based or functional assay

Substance | % maxERK/% maxAKT | Elisa hIR pY1158 max (% of human insulin) (% of human insulin)
Insulin aspart (ligand) | 0.79 | 95
Insulin degludec (ligand) | 0.97 | 87
Insulin glargine (ligand) | 0.85 | 104
Insulin lispro (ligand) | – | 104
N{Epsilon-B26}-17-carboxyheptadecanoyl-[TyrB5,LysB26],des-(B27-B30)-Insulin (ligand; Lys B26: N-epsilon acylated with C18 diacid, no linker) | – | 2
N{Epsilon-B26}-[2-[2-[2-[[2-[2-[2-[[(4S)-4-carboxy-4-(17-carboxyheptadecanoylamino)butanoyl]amino]ethoxy]ethoxy]acetyl]amino]ethoxy]ethoxy]acetyl]-[TyrB5,LysB26],des-(B27-B30)-Insulin (ligand; Lys B26: N-epsilon acylated with C18 diacid-gGlu-2xOEG) | 0.41 | 24
N{Epsilon-B26}-[2-[2-[2-[[(4S)-4-carboxy-4-(17-carboxyheptadecanoylamino)butanoyl]amino]ethoxy]ethoxy]acetyl]-[TyrB5,LysB26],des-(B27-B30)-Insulin (ligand; Lys B26: N-epsilon acylated with C18 diacid-gGlu-OEG) | 0.27 | 20
N{Epsilon-B26}-[(4S)-4-carboxy-4-(17-carboxyheptadecanoylamino)butanoyl]-[TyrB5,LysB26],des-(B27-B30)-Insulin (ligand; Lys B26: N-epsilon acylated with C18 diacid-gGlu) | 0.33 | 6
N{Epsilon-B28}-15-carboxypentadecanoyl-[TyrB5,GlyB26,LysB28],des-(B29-B30)-Insulin (ligand; Lys B28: N-epsilon acylated with C16 diacid, no linker) | 0.27 | 10
N{Epsilon-B28}-15-carboxypentadecanoyl-[TyrB5,LysB28],des-(B29-B30)-Insulin (ligand; Lys B28: N-epsilon acylated with C16 diacid, no linker) | 0.38 | 32
N{Epsilon-B28}-17-carboxyheptadecanoyl-[PheB5,LysB28],des-(B29-B30)-Insulin (ligand; Lys B28: N-epsilon acylated with C18 diacid, no linker) | 0.31 | 10
N{Epsilon-B28}-17-carboxyheptadecanoyl-[TyrB5,GlyB26,LysB28],des-(B29-B30)-Insulin (ligand; Lys B28: N-epsilon acylated with C18 diacid, no linker) | 0.07 | 3
N{Epsilon-B28}-17-carboxyheptadecanoyl-[TyrB5,LysB28],des-(B29-B30)-Insulin (ligand; Lys B28: N-epsilon acylated with C18 diacid, no linker) | 0.35 | 17
N{Epsilon-B28}-[2-[2-[2-(17-carboxyheptadecanoylamino)ethoxy]ethoxy]acetyl]-[TyrB5,LysB28],des-(B29-B30)-Insulin (ligand; Lys B28: N-epsilon acylated with C18 diacid-OEG) | 0.48 | 31
N{Epsilon-B28}-[2-[2-[2-[[(4S)-4-carboxy-4-(17-carboxyheptadecanoylamino)butanoyl]amino]ethoxy]ethoxy]acetyl]-[TyrB5,AlaB26,LysB28],des-(B29-B30)-Insulin (ligand; Lys B28: N-epsilon acylated with C18 diacid-gGlu-OEG) | 0.2 | 6
N{Epsilon-B28}-[2-[2-[2-[[(4S)-4-carboxy-4-(17-carboxyheptadecanoylamino)butanoyl]amino]ethoxy]ethoxy]acetyl]-[TyrB5,GlyB26,LysB28],des-(B29-B30)-Insulin (ligand; Lys B28: N-epsilon acylated with C18 diacid-gGlu-OEG) | 0.34 | 7

Substance | % maxERK/% maxAKT | Elisa hIR pY1158 max (% of human insulin) (% of human insulin)
N{Epsilon-B28}-[2-[2-[2-[[(4S)-4-carboxy-4-(17-carboxyheptadecanoylamino)butanoyl]amino]ethoxy]ethoxy]acetyl]-[TyrB5,LysB28],des-(B29-B30)-Insulin (ligand; Lys B28: N-epsilon acylated with C18 diacid-gGlu-OEG) | 0.61 | 39
N{Epsilon-B28}-[(4R)-4-[(3R,10S,13R,17R)-3-hydroxy-10,13-dimethyl-2,3,4,5,6,7,8,9,11,12,14,15,16,17-tetradecahydro-1H-cyclopenta[a]phenanthren-17-yl]pentanoyl]-[TyrB5,LysB28],des-(B29-B30)-Insulin (ligand; Lys B28: N-epsilon acylated with lithocholic acid, no linker) | 0.29 | 14
N{Epsilon-B28}-[(4S)-4-carboxy-4-(15-carboxypentadecanoylamino)butanoyl]-[TyrB5,LysB28],des-(B29-B30)-Insulin (ligand; Lys B28: N-epsilon acylated with C16 diacid-gGlu) | 0.47 | 43
N{Epsilon-B28}-[(4S)-4-carboxy-4-(17-carboxyheptadecanoylamino)butanoyl]-[TyrB5,LysB28],des-(B29-B30)-Insulin (ligand; Lys B28: N-epsilon acylated with C18 diacid-gGlu) | 0.37 | 19
N{Epsilon-B28}-[(4S)-4-carboxy-4-[[(4R)-4-[(3R,10S,13R,17R)-3-hydroxy-10,13-dimethyl-2,3,4,5,6,7,8,9,11,12,14,15,16,17-tetradecahydro-1H-cyclopenta[a]phenanthren-17-yl]pentanoyl]amino]butanoyl]-[TyrB5,LysB28],des-(B29-B30)-Insulin (ligand; Lys B28: N-epsilon acylated with lithocholic acid-gGlu) | 0.32 | 25
N{Epsilon-B28}-[(4S)-4-carboxy-4-[[(4S)-4-carboxy-4-(17-carboxyheptadecanoylamino)butanoyl]amino]butanoyl]-[TyrB5,LysB28],des-(B29-B30)-Insulin (ligand; Lys B28: N-epsilon acylated with C18 diacid-2xgGlu) | 0.45 | 36
N{Epsilon-B29}-[(4S)-4-carboxy-4-(15-carboxypentadecanoylamino)butanoyl]-[TyrB5,AlaB26],des-ThrB30-Insulin (ligand; Lys B29: N-epsilon acylated with C16 diacid-gGlu) | 0.3 | 13
N{Epsilon-B29}-[(4S)-4-carboxy-4-(15-carboxypentadecanoylamino)butanoyl]-[TyrB5,GlyB26],des-ThrB30-Insulin (ligand; Lys B29: N-epsilon acylated with C16 diacid-gGlu) | 0.19 | 8
N{Epsilon-B29}-[(4S)-4-carboxy-4-(15-carboxypentadecanoylamino)butanoyl]-[TyrB5],des-ThrB30-Insulin (ligand; Lys B29: N-epsilon acylated with C16 diacid-gGlu) | 0.84 | 58
N{Epsilon-B29}-[(4S)-4-carboxy-4-(17-carboxyheptadecanoylamino)butanoyl]-[TyrB5,AlaB26],des-ThrB30-Insulin (ligand; Lys B29: N-epsilon acylated with C18 diacid-gGlu) | 0.29 | 6
N{Epsilon-B29}-[(4S)-4-carboxy-4-(17-carboxyheptadecanoylamino)butanoyl]-[TyrB5,GlyB26],des-ThrB30-Insulin (ligand; Lys B29: N-epsilon acylated with C18 diacid-gGlu) | 0.36 | 7
N{Epsilon-B29}-tetradecanoyl-[TyrB5],des-ThrB30-Insulin (ligand; Lys B29: N-epsilon acylated with C14 (tetradecanoyl), no linker) | 0.66 | 40
[TyrB5,AlaB26],des-ThrB30-Insulin (ligand) | 0.85 | 132
[TyrB5,GlyB26],des-ThrB30-Insulin (ligand) | 0.82 | 93
[TyrB5,LysB28],des-(B29-B30)-Insulin (ligand) | 0.84 | 93

Target: solubilised human insulin receptor isoform A (IR-A) (human) (UniProt P06213)
Assay: competition SPA on solubilised human IR-A against [125I-TyrA14]-human insulin; affinity relative to human insulin

Substance | hIR binding IC50 (% of human insulin) (% of human insulin)
Insulin degludec (ligand) | 20
Insulin glargine (ligand) | 79
